Ends that are not written are not given here. * marks the point of attachment. Biotin = O=C1N[C@H]2[C@H](CS[C@H]2CCCCC(=O)*)N1
B1: Maltose Binding Protein (MBP) fused to amino acids 1-120 of nNOS (other, UniProt P29475 1-120, looked up, not shown: large carriers)
chain: MEDHMFGVQQIQPNVISVRLFKRKVGGLGFLVKERVSKPPVIISDLIRGGAAEQSGLIQAGDIILAVNGRPLVDLSYDSALEVLRGIASETHVVLILRGPEGFTTHLETTFTGDGTPKTI
notes: range 1-120; also called MBP-nNOS; internal PL of nNOS
B2: ESSGTQSPKRHSGSYLVTSV peptide (peptide)
peptide: Biotin-ESSGTQSPKRHSGSYLVTSV
B3: TatTAX: TAT transporter sequence coupled to the C-terminal 9 amino acids of Tax (peptide)
peptide: YGRKKRRQRRREKHFRETEV
modifications: also: N-terminal biotin when used as labelled ligand

Assays:
GST-PSD95 PDZ domain 1 [1] = target: T1, GST-PSD95 PDZ domain 1 (human); test: G assay with MBP-nNOS, anti-MBP-HRP detection, FIG. 11
T1 construct: also called PSD95 d1; PSD-95 d1
T1 sequence (chain, as listed by the source): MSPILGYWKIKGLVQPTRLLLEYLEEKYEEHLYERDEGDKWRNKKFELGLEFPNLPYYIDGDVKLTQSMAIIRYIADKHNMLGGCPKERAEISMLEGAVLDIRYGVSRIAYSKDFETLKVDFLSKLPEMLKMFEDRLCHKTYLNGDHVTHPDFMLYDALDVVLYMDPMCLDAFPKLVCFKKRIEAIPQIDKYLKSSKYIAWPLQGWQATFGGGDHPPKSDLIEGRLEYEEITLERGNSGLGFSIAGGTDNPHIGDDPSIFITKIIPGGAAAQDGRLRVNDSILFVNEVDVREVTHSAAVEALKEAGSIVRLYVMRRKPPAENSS
Method: This protein was used in the G assay in place of a labeled peptide to assess the interaction between PSD95 domains 1 and 2 and nNOS, and detection was performed using an HRP-conjugated antibody against MBP. […] MBP/PSD95 indicates a negative control containing MBP without the nNOS sequences.

GST-PSD95 PDZ domain 3 = target: T2, GST-PSD95 PDZ domain 3 (human); test: G assay
T2 construct: also called PSD95 d3; PSD95 domain 3
T2 sequence (chain, as listed by the source): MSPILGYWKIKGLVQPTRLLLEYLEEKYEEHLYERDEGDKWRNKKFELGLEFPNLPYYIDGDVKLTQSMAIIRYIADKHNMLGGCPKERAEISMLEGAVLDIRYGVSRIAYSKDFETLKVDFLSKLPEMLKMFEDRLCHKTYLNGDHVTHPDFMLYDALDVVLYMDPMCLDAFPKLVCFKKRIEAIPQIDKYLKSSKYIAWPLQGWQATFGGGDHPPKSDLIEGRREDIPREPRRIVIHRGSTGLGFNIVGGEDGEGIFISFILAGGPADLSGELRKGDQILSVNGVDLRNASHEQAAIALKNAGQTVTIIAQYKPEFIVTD

GST-PSD95 PDZ domain 2 [2] = target: T3, GST-PSD95 PDZ domain 2 (human); test: G assay
T3 construct: also called PSD95 d2; PSD-95 d2

GST-PSD95 PDZ domain 1 [3] = target: T1, GST-PSD95 PDZ domain 1; test: G assay
GST-PSD95 PDZ domain 2 [4] = target: T3, GST-PSD95 PDZ domain 2; test: G assay competition against NMDAR2A or R2B peptide, FIG. 10

Binder | binding result (GST-PSD95 PDZ domain 1 [1]) | Average OD (GST-PSD95 PDZ domain 3) [OD] | Average OD (GST-PSD95 PDZ domain 2 [2]) [OD] | Average OD (GST-PSD95 PDZ domain 1 [3]) [OD] | IC50 (GST-PSD95 PDZ domain 2 [4]) [nM]
B1 | no binding | – | – | – | –
B2 | – | 0.7 | – | – | –
B3 | – | 2.93 | 2.79 | 2.81 | 100 to 1000

Source: patent US20110039758A1 (published 2011)
